The values below come from paper PMC2752461, “Involvement of S-adenosylmethionine-dependent halide/thiol methyltransferase (HTMT) in methyl halide emissions from agricultural plants: isolation and characterization of an HTMT-coding gene from Raphanus sativus (daikon radish)” (BMC Plant Biology, 2009).

Substrate in series [1]: N#CS
The series is described as follows: GC-FID of CH3SCN formation. Type of series: biochemical, Raphanus sativus. Particulars: 500 μM SAM constant, KSCN, 20 mM MES pH 7.0, 30 °C. The source says: GC-FID of CH3SCN formation on recombinant RsHTMT

Substrate in series [2]: I
The series is described as follows: GC-MS headspace assay of methylated product. Particulars: 500 μM SAM constant, 20 mM MES pH 7.0, 30 °C. Type of series: biochemical, Raphanus sativus.
Text: (§1) GC-MS headspace assay of methylated product on recombinant RsHTMT

Substrate in series [3]: S
The series is described as follows: GC-MS headspace assay of methylated product. Type of series: biochemical, Raphanus sativus. Particulars: 500 μM SAM constant, supplied as NaSH, 20 mM MES pH 7.0, 30 °C.
Text: as §1

Substrate in the series “purified protein”: C[S+](CC[C@H](N)C(=O)O)C[C@H]1O[C@@H](n2cnc3c(N)ncnc32)[C@H](O)[C@@H]1O
The series is described as follows: purified protein. Particulars: 20 mM iodide constant, 20 mM MES pH 7.0, 30 °C.

B1: recombinant RsHTMT (Raphanus sativus) (protein)
chain: MAEGQQNSGNSNGENIIPPEDVAKFLPKTVEEGGWEKCWEDGVTPWDQGRATPLVVHLVESSSLPLGRALVPGCGGGHDVVAMASPERYVVGLDISESALEKAAETYASSPKAKYFTFVKEDFFTWRPSELFDLIFDYVVFCAIEPEMRAAWAKTMYELLKPDGELITLMYPITDHDGGPPYKVAVSTYEDVLVPVGFKAVSIEENPYSIATRKGKEKLGRWKKIN
notes: sense primer encodes MAEGQQ), His-tagged fusion in pET-21b, E. coli BL21(DE3), Ni-Sepharose, tag kept
With B1, the Km was 40 µM in series [1], 4470 µM in series [2], 12240 µM in series [3] and 190 µM in the series “purified protein”. The Vmax was 0.185 µmol/min/mg in series [1], 0.139 µmol/min/mg in series [2] and 0.159 µmol/min/mg in series [3].

As a reminder, the Km is the substrate concentration at which the rate is half of its maximum. What is called Vmax is the rate approached at saturating substrate.
